Laboratory results published in ChEMBL document CHEMBL1268867, “ATPases as drug targets: insights from heat shock proteins 70 and 90” (J Med Chem, 2010).

What was measured:
[1] = system: Nc1ncnc2c1ncn2[C@@H]1O[C@H](COP(=O)(O)OP(=O)(O)O)[C@@H](O)[C@H]1O; conditions: Saccharomyces cerevisiae
Description: Binding affinity to yeast Hsp90

[2] = Binding affinity to FGFR
[3] = system: Nc1ncnc2c1ncn2[C@@H]1O[C@H](COP(=O)(O)OP(=O)(O)OP(=O)(O)O)[C@@H](O)[C@H]1O; test: Binding affinity to CDK2/cyclin E; assay type: protein-complex assay

Molecule “ATP-dependent molecular chaperone HSP82 (Saccharomyces cerevisiae S288c), P02829” has a Km [1] of 150 µM.

In the case of `Nc1ncnc2c1ncn2[C@@H]1O[C@H](COP(=O)(O)OP(=O)(O)OP(=O)(O)O)[C@@H](O)[C@H]1O`, the Km [2] is reported as 70 µM.

With “Cyclin-dependent kinase 2/cyclin E (Homo sapiens) (from UniProt P24864+P24941+O96020)” the Km [3] was 3.6 µM.
